Legend:
[1] = molecular target: HAdV-D37 protein IIIa tagged with C-terminal 3X FLAG (human adenovirus D type 37 (HAdV-D37)); test: SPR; […] (80 nM or 2.5 nM) […]
[2] = molecular target: HAdV-D37 protein IIIa tagged with C-terminal 3X FLAG (human adenovirus D type 37 (HAdV-D37)); test: SPR; BIAcore T200, 25°C, […] (25 mM HEPES, 150 mM NaCl, 0.05% P20, 2 mM DTT, pH 7.4); […]; 1:1 binding model

Chain of partial recombinant RANBP2 protein (#ab268915, Abcam) (domain or fragment) (P49792 1346-1815): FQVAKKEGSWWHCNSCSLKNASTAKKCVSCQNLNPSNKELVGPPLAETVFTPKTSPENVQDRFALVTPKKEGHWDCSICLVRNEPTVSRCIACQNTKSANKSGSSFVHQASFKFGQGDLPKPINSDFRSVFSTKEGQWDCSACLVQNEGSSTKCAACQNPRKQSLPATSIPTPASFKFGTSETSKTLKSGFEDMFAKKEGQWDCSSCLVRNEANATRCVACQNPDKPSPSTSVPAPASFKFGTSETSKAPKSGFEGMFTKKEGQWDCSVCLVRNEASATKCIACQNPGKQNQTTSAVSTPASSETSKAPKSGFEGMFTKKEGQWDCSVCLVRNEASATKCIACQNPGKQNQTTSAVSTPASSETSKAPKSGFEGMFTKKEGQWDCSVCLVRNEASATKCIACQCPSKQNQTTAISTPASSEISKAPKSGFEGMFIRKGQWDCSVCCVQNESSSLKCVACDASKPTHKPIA

Substance | Kd [1] [µM] | Kd [2] [µM] | koff [2] [s⁻¹] | kon [2] [M⁻¹ s⁻¹]
recombinant USP9X protein (#ab271784, Abcam) (from UniProt Q93008 1-2554) (enzyme) | 0.0018 | 0.032 | 0.00119 | 37200
partial recombinant RANBP2 protein (#ab268915, Abcam) (domain or fragment) | 0.122 | 0.0137 | 0.000658 | 48000
